According to paper PMC9891502 (PLOS Pathogens, 2023):
Numbering of substitutions follows the chain as printed. Names may count otherwise.

What was measured:
[1] = molecular target: gB AD-2S1 peptide (human cytomegalovirus); experiment: SPR; details: both partners purified
[2] = molecular target: T1, full-length gB (Towne strain) expressed on HEK293T cells (Human cytomegalovirus strain Towne, UniProt P13201); experiment: flow cytometry on cells; design: AUC of a 3-point dilution series: unit not given beside the values; details: one partner purified
T1 construct: also called cell-associated gB

[3] = molecular target: T2, gB on whole CMV virions of strain TB40/E (Human cytomegalovirus strain TB40/E (gB …, UniProt P13201, strain)); experiment: ELISA; details: one partner purified
T2 construct: also called whole virion CMV strain TB40/E; source: whole TB40/E virions coated on the plate (33 PFU/well)

[4] = molecular target: T1, full-length gB (Towne strain) expressed …; experiment: cell-based or functional assay
[5] = molecular target: T3, gB AD-2S1 peptide (Human cytomegalovirus (HHV-5), gB …); experiment: ELISA; 384-well plates coated overnight at 4°C with 45 ng gB AD-2S1 peptide or gB ectodomain per well; mAbs in a 12-point 3-fold dilution from 1 μg/mL; detected with goat anti-human IgG-HRP; EC50; details: both partners purified
T3 chain: HRANETIYNTTLKYG

[6] = molecular target: gB AD-2S1 peptide (human cytomegalovirus); experiment: SPR; details: both partners purified; remark: listed apart in the source
[7] = molecular target: T3, gB AD-2S1 peptide; experiment: SPR; details: both partners purified

B1: I7 (antibody, V domains shown)
VH: QVQLVESGGGVVQPGRSLRLSCAASGFTFSGYNLHWVRQAPGKGLEWVAVISIDGSNKHYADSVKGRFTISRDNSKNTLYLQMNSLRAEDTAVYYCARDGRSVGGFSGILDPWGQGTLVTVSS
VL: not shown
notes: also called intermediate 7
With B1 the Kd [1] was 4.47 nM and the kon [1] was 1.46e+08 M⁻¹ s⁻¹.

B2: TRL345 unmutated common ancestor (UCA) mAb (antibody, V domains shown)
VH: B1 VH with G31S, N33A, L34M, I53Y, H59Y
VL: not shown
notes: also called TRL345 UCA; TRL345.UCA
B2 was tested, and the “AUC of a 3-point dilution series” value [2] was 97.3 ± 21.2.

B3: MAB319 (antibody, V domains shown)
VH: B1 VH with A23S, G31D, N57D, Y60H, I70V, L79V, Y80S, N84D, A88P, F106Y
VL: EIVLTQSPATLSLSPGERATLSCRASQSVGSYLAWYQQKPGQAPRLLIYDASERATGIPARFSGSGSGTDFTLTISSLEPEDVAVYYCQQRNNWPPLTFGGGTKVEIK
B3 gave a Kd [1] of 0.9 nM and a kon [1] of 1.3e+08 M⁻¹ s⁻¹.

B4: TRL345 lineage intermediate 8 (I8) mAb (antibody, V domains shown)
VH: B1 VH with G31S, L34M, I53N, H59Y
VL: not shown
In the case of B4, the binding result [3] is reported as “binds”, the “neutralization IC50, CMV strain AD169rUL131-GFP (gB genotype 2) on MRC-5 fibroblasts” value [4] is reported as 0.83 µg/mL and the “neutralization IC50, CMV strain Towne (gB genotype 1) on MRC-5 fibroblasts” value [4] is reported as 2.78 µg/mL. For the same binder, the “AUC of a 3-point dilution series” value [2] was 133 ± 33.3 and the “fold increase in ELISA binding magnitude against the UCA” value [5] was 151 fold.

B5: I8 with VH A33N reverted to germline (antibody, V domains shown)
VH: B1 VH with G31S, N33A, L34M, I53N, H59Y
VL: not shown
B5 showed an other [2] of 1.4 fold and an other [5] of 395 fold.

B6: I5 (antibody, V domains shown)
VH: B1 VH with A23S, G31D, Y60H, L79V, Y80N, F106Y
VL: B3 VL with N92S
notes: also called intermediate 5
Binder B6 has a Kd [1] of 5.52 nM and a kon [1] of 1.23e+08 M⁻¹ s⁻¹.

B7: I8 with VL S30G reverted to germline (antibody, V domains shown)
VH: B1 VH with G31S, L34M, I53N, H59Y
VL: not shown
With B7 the “fold decrease in neutralization potency for CMV strain Towne against I8” value [4] was 9 fold, the binding result [2] was “binds” and the binding result [5] was “binds”.

B8: TRL345 UCA with VH Y52aN (antibody, V domains shown)
VH: B1 VH with G31S, N33A, L34M, I53N, H59Y
VL: not shown
B8: binds [2].

B9: I8 with VL N53D reverted to germline (antibody, V domains shown)
VH: B1 VH with G31S, L34M, I53N, H59Y
VL: not shown
In the case of B9, the “fold decrease in neutralization potency for CMV strain Towne against I8” value [4] is reported as 2.5 fold, the binding result [2] is reported as “binds” and the binding result [5] is reported as “binds”.

B10: I8 with VH Y52aN reverted to germline (antibody, V domains shown)
VH: B1 VH with G31S, L34M, I53Y, H59Y
VL: not shown
B10: binds [2]; binds [5].

B11: TRL345 UCA with VH A33G (antibody, V domains shown)
VH: B1 VH with G31S, N33G, L34M, I53Y, H59Y
VL: not shown
For B11, the “fold increase in binding against the TRL345 UCA” value [2] was 1.1 fold and the “fold increase in binding against the TRL345 UCA” value [5] was about 15 fold.

B12: TRL345 UCA with VL N53D (antibody, V domains shown)
VH: B1 VH with G31S, N33A, L34M, I53Y, H59Y
VL: not shown
B12: binds [2].

B13: TRL345 UCA (antibody, V domains shown)
VH: B1 VH with G31S, N33A, L34M, I53Y, H59Y
VL: not shown
notes: also called unmutated common ancestor
B13 showed a Kd [6] of 27.6 nM and a kon [6] of 9.73e+07 M⁻¹ s⁻¹.

B14: TRL345 I8 (antibody, V domains shown)
VH: B1 VH with G31S, L34M, I53N, H59Y
VL: not shown
B14 was tested, and the Kd [6] was 23.2 nM and the kon [6] was 1.33e+08 M⁻¹ s⁻¹.

B15: TRL345 UCA with VL S30G (antibody, V domains shown)
VH: B1 VH with G31S, N33A, L34M, I53Y, H59Y
VL: not shown
B15 was tested, and the “fold increase in binding magnitude against the UCA” value (“fold increase in binding magnitude” below) [2] was 1.2 fold and the “fold increase in binding magnitude” value [5] was 1.8 fold.

B16: TRL345 UCA with VH A33N (antibody, V domains shown)
VH: B1 VH with G31S, L34M, I53Y, H59Y
VL: not shown
With B16 the “fold increase in binding magnitude” value [2] was 2.5 fold and the “fold increase in binding magnitude” value [5] was 269 fold.

B17: 3–25 UCA with VH A33N (antibody, V domains shown)
VH: QVQLVESGGGVVQPGRSLRLSCAASGFTFSSYNMHWVRQAPGKGLEWVAVISYDGSNKYYADSVKGRFTISRDNSKNTLYLQMNSLRAEDTAVYYCAREGYCSGGSCYSGQPDYWGQGTLVTVSS
VL: not shown
For B17, the other [2] was 4.4 fold.

B18: 3–25 UCA with VH A33G (antibody, V domains shown)
VH: B17 VH with N33G
VL: not shown
B18 showed an other [2] of 1.4 fold.

B19: MAB343 (antibody, V domains shown)
VH: QVQLQESGGGVVQPGRSLRLSCAASGFTFNTYNMHWVRQAPGKGLEWVAVISNDGTYKYSADSVKGRFSISRGNSKNTLYLQMNSLRPDDTAVYYCARDGRSVGGFSGILDPWGQGTLATVSS
VL: B3 VL with L4M, E17D, E53D, V83F, N92S
Binder B19 has a Kd [1] of 1.57 nM and a kon [1] of 1.61e+08 M⁻¹ s⁻¹.

B20: MAB313 (antibody, V domains shown)
VH: QVQLVQSGGGVIQPGRSLTLSCAASGFTFSAYSLHWVRQAPGKGLQWVAVISFDGNFKHFADSLRGRFTISRDNSKNRFYLQMNGLRGEDTAVYYCARDGRAVDGFSGILDFWGQGTLVSVSS
VL: B3 VL with L4M, S31R, A34T, Y36F, V83F, N92A
In the case of B20, the Kd [1] is reported as 4.38 nM and the kon [1] is reported as 1.54e+08 M⁻¹ s⁻¹.

B21: MAB309 (I2) (antibody, V domains shown)
VH: QVQLVQSGGGVVQPGTSLRLSCAASGFMFNTYNMHWVRQAPGKGLEWVAVISNDGTYKHFADSLKGRFSISRDDSKNTLYLHMNSLRPDDTAIYYCARDGRSVGGFSGILDPWGQGTLVTVSS
VL: B3 VL with E17D, S28T, S31R, E53D, P59S, V83F, N92S, N93S
Binder B21 has a Kd [1] of 3.77 nM and a kon [1] of 1.24e+08 M⁻¹ s⁻¹.

B22: MAB338 (antibody, V domains shown)
VH: QVQLVESGGGVVQPGRSLRLSCSGSGFTFSDYNLHWVRQAPGKGLEWVAVISIDGTNKHHADSVKGRFTISRDNSKNTVNLEMSRLKAEDTAVYYCVRDGRSIGGYSGIFDPWGQGTLVTVSS
VL: B3 VL with G30D, S31R, E53Q, T74A, N92S, V105I
With B22 the Kd [1] was 1.99 nM and the kon [1] was 1.36e+08 M⁻¹ s⁻¹.

B23: MAB310 (I3) (antibody, V domains shown)
VH: B21 VH with H59Y, F60S, D74N, I93V
VL: B3 VL with E17D, S28T, S31R, E53D, P59S, V83F, N92S
In the case of B23, the Kd [1] is reported as 3.11 nM and the kon [1] is reported as 1.87e+08 M⁻¹ s⁻¹.

B24: I1 (antibody, V domains shown)
VH: B19 VH with Q5V, G73D, A119V
VL: B3 VL with L4M, E17D, E53D, V83F, N92S
notes: also called intermediate 1
B24 was tested, and the Kd [1] was 1.59 nM and the kon [1] was 1.43e+08 M⁻¹ s⁻¹.

B25: anti-gB AD-2 mAb 3-25 (antibody, V domains shown)
VH: QVQLVESGGGVVQPGRSLRLSCAASGFTFSNHGLHWVRQPPGKGLEWVAVVSKDGTNEHYADSVRGRFTISRDNSKNTLYLLMKSLRLEDTAVYYCAREGYCGDDRCYSGQPDYWGQGILVTVSS
VL: B3 VL with S7F, S31R, A51S, E53N, I58V, T74S, V83F, Y87F, N92S, N93H
With B25 the Kd [6] was 4.42 nM and the kon [6] was 1.49e+08 M⁻¹ s⁻¹.

B26: MAB316 (antibody, V domains shown)
VH: B20 VH with I12V, A31G, Y32F, F57H, R65K, R78T, F79L, M83I, G85D
VL: B3 VL with L4M, S31R, A34T, Y36F, I58V, V83F, N92S
B26 gave a Kd [1] of 2.96 nM and a kon [1] of 1.63e+08 M⁻¹ s⁻¹.

B27: TRL345 mAb (antibody, V domains shown)
VH: B19 VH with Q5V, N30S, T31D, N53I, K65A, I70L, G73D, V93I, A119V
VL: B3 VL with L4M, E17D, I48M, A51S, E53V, V83F
With B27 the “neutralization IC50 on ARPE epithelial cells” value [4] was under 0.35 µg/mL, the “neutralization IC50 on MRC-5 fibroblasts” value [4] was under 0.25 µg/mL and the “AUC of a 3-point dilution series” value [2] was 152 ± 20.8.

B28: MAB318 (antibody, V domains shown)
VH: B21 VH
VL: B3 VL with I2V, E17D, S28T, S31R, E53D, P59S, S76G, V83F, N92S, N93S
B28 was tested, and the Kd [1] was 3.68 nM and the kon [1] was 1.33e+08 M⁻¹ s⁻¹.

B29: TRL345 (antibody, V domains shown)
VH: B19 VH with Q5V, N30S, T31D, N53I, K65A, I70L, G73D, V93I, A119V
VL: B3 VL with L4M, E17D, I48M, A51S, E53V, V83F
notes: also called MAB345
With B29 the Kd [6] was 0.29 nM and the kon [6] was 1.52e+08 M⁻¹ s⁻¹.

B30: I4 (antibody, V domains shown)
VH: B19 VH with Q5V, G73D, A119V
VL: B3 VL with E17D, E53D, V83F, N92S
notes: also called intermediate 4
Work on B30 yielded a Kd [1] of 1.85 nM and a kon [1] of 1.3e+08 M⁻¹ s⁻¹.

B31: TRL345 lineage second intermediate (I4) mAb (antibody, V domains shown)
VH: B19 VH with Q5V, G73D, A119V
VL: B3 VL with E17D, E53D, V83F, N92S
With B31 the other [7] was 5 fold.
